Measurements: the supplement of paper PMC6757056
± gives the standard deviation of the averaged measurements.

B1: library; a variant is named by its letters at N, in order (parent)
chain: GCUGUCACCGGUGUAUUACCCUAGUGGUCGACCGGUCUGAUGAGUCUNNNNNNAGACGAAACAGC

Experiments:
hypoxanthine [1] = variants of: B1; assay: FACS-Seq fitted mean relative fluorescence mCherry/BFP without ligand (log10 relative fluorescence); ligand: hypoxanthine (xanthine aptamer); higher = higher reporter protein expression; conditions: HEK293T, ligand present: no
In short: (§1)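 Sorting into 6 bins by mCherry/BFP followed 48 h of incubation with or without ligand. The cells were enriched HEK293T libraries lentivirally bearing an mCherry reporter with the ribozyme switch and an EF1α-BFP marker, and bin genomic DNA was PCR-amplified, barcoded and sequenced on MiSeq. Fluorescence is the fitted normal mean of the bin counts. Means were fitted on log10(mCherry/BFP), scaled to five spiked-in control ribozymes.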

hypoxanthine [2] = variants of: B1; assay: normalized RNA/DNA level with ligand (relative to sTRSVctl = 100) (log10 (% of sTRSVctl)); ligand: hypoxanthine (xanthine aptamer); higher = less ribozyme self-cleavage, higher mRNA level; conditions: ligand concentration (+) RNA-Seq: 5 mM, HEK293T, reporter: mCherry (pCS4076), ligand present: yes
In short: (§2)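 Only sequences with at least 100 DNA reads were analyzed, from HEK293T cells transfected with 4 µg per 6-well well of ribozyme switch library plasmids 72 h before RNA extraction with EDTA. Any ligand was added 1 h before transfection. RNA level was defined as RNA over DNA reads, normalized to a spiked-in non-cleaving sequence or to the top sequences, then scaled and log-transformed. The top set was 25 sequences, and the scaling was ×100 followed by log10.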

hypoxanthine [3] = variants of: B1; assay: normalized RNA/DNA level without ligand (relative to sTRSVctl = 100) (log10 (% of sTRSVctl)); ligand: hypoxanthine (xanthine aptamer); higher = less ribozyme self-cleavage, higher mRNA level; conditions: HEK293T, reporter: mCherry (pCS4076), ligand present: no
In short: as §2

hypoxanthine [4] = variants of: B1; assay: FACS-Seq fitted mean relative fluorescence mCherry/BFP with ligand (log10 relative fluorescence); ligand: hypoxanthine (xanthine aptamer); ligand concentration (+) FACS-Seq: 5 mM; higher = higher reporter protein expression; conditions: HEK293T, ligand present: yes
In short: as §1

Variant | FACS-Seq fitted mean (log10) (hypoxanthine [1]) | normalized RNA/DNA level with ligand (log10) (hypoxanthine [2]) | normalized RNA/DNA level without ligand (log10) (hypoxanthine [3]) | FACS-Seq fitted mean (log10) (hypoxanthine [4])
CCGAGG | 0.00201 ± 0.0053 | 1.839 ± 0.0063 | 1.37 ± 0.038 | 0.423 ± 0.024
CCGAGA | 0.353 ± 0.076 | 1.87 ± 0.042 | 1.51 ± 0.046 | 0.648 ± 0.061
GCGGGU | 0.731 ± 0.07 | 1.97 ± 0.048 | 1.83 ± 0.016 | 0.735 ± 0.05
GCGGGG | 0.17 ± 0.0079 | 1.96 ± 0.031 | 1.56 ± 0.026 | 0.433 ± 0.03
GCGGGA | 0.182 ± 0.017 | 1.97 ± 0.034 | 1.718 ± 0.012 | 0.591 ± 0.025
GCGGCG | -0.49 ± 0.037 | 1.93 ± 0.045 | 1.514 ± 0.012 | -0.0806 ± 0.025
ACCGCG | 0.331 ± 0.028 | 1.826 ± 0.015 | 1.5 ± 0.097 | 0.608 ± 0.026
ACCGCC | 0.708 ± 0.051 | 1.938 ± 0.0023 | 1.879 ± 0.0089 | 0.737 ± 0.025
CCGUGU | 0.225 ± 0.038 | 1.89 ± 0.12 | 1.69 ± 0.017 | 0.616 ± 0.025
CCGUGG | 0.237 ± 0.043 | 1.823 ± 0.0069 | 1.23 ± 0.16 | 0.718 ± 0.053
CCGUGA | 0.311 ± 0.044 | 1.973 ± 0.0073 | 1.565 ± 0.012 | 0.64 ± 0.017
GCCUCG | 0.33703 ± 0.00012 | 1.91 ± 0.039 | 1.6 ± 0.029 | 0.649 ± 0.049
CCGGAC | 0.196 ± 0.035 | 2 ± 0.05 | 1.79 ± 0.077 | 0.439 ± 0.041
CCGGAA | 0.279 ± 0.013 | 1.91 ± 0.027 | 1.71 ± 0.044 | 0.1512 ± 0.00072
CCGGAG | 0.0637 ± 0.015 | 1.86 ± 0.11 | 1.36 ± 0.11 | 0.573 ± 0.039
GCCGGU | 0.478 ± 0.08 | 1.957 ± 0.01 | 1.982 ± 0.01 | 0.744 ± 0.043
GCGCAG | -0.0972 ± 0.035 | 1.58 ± 0.048 | 1.06 ± 0.11 | 0.617 ± 0.052
GCGCAC | 0.112 ± 0.061 | 1.8 ± 0.2 | 1.412 ± 0.0031 | 0.0185 ± 0.28
